The source of these data is patent US20240336686A1 (ELPISCIENCE SUZHOU BIOPHARMA, published 2024).

The target of experiment [1] is T1, mFc tagged human SIRPα v1 ECD recombinant protein (human, UniProt P78324 31-373).
T1 construct: extracellular domain; not shown: mouse Fc tag
The experiment is described as follows: competitive ELISA; row antibody in excess in solution, coated mAb 025c. As to the method:
(§1) Competitive ELISA assay was used for epitope binning of purified chimeric antibodies. Briefly excessive competitor antibody and mFc tagged human SIRPα v1 ECD recombinant protein were co-incubated with ELISA microplate coated antibody. After washing, HRP labeled anti-mouse Fc 2nd antibody (Sigma) was added and incubated at 37° C. for 1 hour. Then, 100 μl/well of TMB solution (Biotechnology) was added. After incubation for 15 minutes at room temperature, the reaction was stopped by the addition of 50 μl of 1N HCl. OD 450 nm was read. Competition ratio was calculated. The antibodies that can compete each other for binding to SIRPα may have related binding epitopes.
On the technique in general: ELISA stands for enzyme-linked immunosorbent assay.

In experiment [2] the target is T1, mFc tagged human SIRPα v1 ECD …. Description: competitive ELISA; row antibody in excess in solution, coated mAb 042c. The procedure:
as §1

Experiment [3] shares this target. The experiment is described as follows: competitive ELISA; row antibody in excess in solution, coated mAb hu1H9G4. The procedure: as §1
Experiment [4] concerns the target Full length human SIRPα v1 with beta-gal fragment (ED) at its C-terminal, in K562 cells (human, UniProt P78324 31-504). Description: cell-based or functional assay.
Experiment [5] addresses T2, human SIRPα v1 on CHOK1 cells (human, UniProt P78324 31-504).
T2 construct: whole, on cells; also called CHOK1-hSIRPα v1; cell surface human SIRPα v1
Description: FACS, CHOK1 cells stably expressing human SIRPα v1. The text has this:
(§2) Binding activity of the purified chimeric antibodies against human SIRPα variants was detected by FACS assay using CHOK1 cells or 293F cells stably expressing human SIRPα v1 and CHOK1 cells stably expressing human SIRPα v2. […] EC₅₀ and top signal calculated using GraphPad Prism9.0.
For orientation: Flow cytometry measures light scatter and fluorescence of single cells or particles in a stream.

Experiment [6] addresses T3, human SIRPα v2 on CHOK1 cells (human, UniProt P78324 31-504).
T3 construct: whole, on cells; also called CHOK1-hSIRPα v2; cell surface human SIRPα v2
The experiment is described as follows: FACS, CHOK1 cells stably expressing human SIRPα v2.
Source text: as §2

In experiment [7] the target is T4, human SIRPα v1 ECD recombinant protein (human, UniProt P78324 31-373).
T4 construct: extracellular domain; Coated on the ELISA plate
The experiment is described as follows: competitive ELISA, plate-coated human SIRPα v1 ECD; blocked ligand: mFc tagged human CD47 ECD. The procedure: (§3) Competitive ELISA assay was used to determine whether the purified chimeric antibodies can block CD47 and SIRPα interaction. Briefly, antibody and mFc tagged human CD47 ECD recombinant protein were co-incubated with ELISA microplate coated human SIRPα v1 ECD or human SIRPα v2 ECD recombinant protein. The concentration of soluble ECD of CD47 is 25 nM, and the concentration of soluble ECD of SIRPα is 20 nM. After washing, HRP labeled anti-mouse Fc 2nd antibody (Sigma) was added and incubated at 37° C. for 1 hour. Then, 100 μl/well of TMB solution (Biotechnology) was added. After incubation for 15 minutes at room temperature, the reaction was stopped by the addition of 50 μl of 1N HCl. OD 450 nm was read. Blocking ratio was determined by blockade of human SIRPα ECD recombinant protein binding to ELISA microplate coated human CD47 ECD recombinant protein. All antibodies as tested can block interaction between human CD47 and different human SIRPα variants.

The target of experiment [8] is T5, human SIRPα v2 ECD recombinant protein (human).
T5 construct: extracellular domain; Coated on the ELISA plate
Description: competitive ELISA, plate-coated human SIRPα v2 ECD; blocked ligand: mFc tagged human CD47 ECD. As to the method:
as §3

For experiment [9], the target named is T6, human PDL1 on cells (human, UniProt Q9NZQ7 19-290). Description: cell-based or functional assay.
Experiment [10] concerns the target human PDL1 protein (Octet assay) (human, UniProt Q9NZQ7 19-238). Description: Octet; antibody on sensor, PDL1 protein in solution. As to the method: The Anti-PDL1/SIRPα bispecific protein were characterized for binding affinity against human PDL1 using Octet assay (ForeBio) according to manufacturer's manual, separately. Briefly, the antibodies were coupled on sensors and then the sensors were dipped into PDL1 protein gradients (start at 200 nM, with 2-fold dilution and totally 8 doses). Their binding responses were measured in real-time and results were fit globally.
(In general: BLI is a label-free optical method that tracks binding on a fibre tip over time.)

The target of experiment [11] is T6, human PDL1 on cells. The experiment is described as follows: FACS, Raji cells overexpressing human PDL1, anti-human Fc-PE, MFI. The procedure: Approximately 100,000 Raji cells overexpressing human PDL1 were washed with wash buffer and incubated with 100 ul serial dilution of PDL1/SIRPα bispecific protein for 30 minutes on ice. Cells were then washed twice with wash buffer and incubated with 100 ul of anti-human Fc-PE for 30 minutes on ice. Cells were then washed twice with wash buffer and analyzed on a FACS Canto II analyzer (BD Biosciences). […] The bispecific antibodies ES019-025, ES019-026 bound Raji/hPDL1 similar to anti-PDL1 monoclonal antibody C71 whereas ES019-020, ES019-024 bound Raji/hPDL1 to a lesser extent relative to anti-PDL1, C71.

Experiment [12] addresses T4, human SIRPα v1 ECD recombinant protein. Description: competitive ELISA, plate-coated human SIRPα v1 ECD; blocked ligand: mFc tagged human CD47 ECD. The procedure: as §3, with “ECD” for “ECD or human SIRPα v2 ECD”, “protein.” for “protein. The concentration of soluble ECD of CD47 is 25 nM, and the concentration of soluble ECD of SIRPα is 20 nM.”, “protein.” for “protein. All antibodies as tested can block interaction between human CD47 and different human SIRPα variants.”
The source holds these as a separate data set.

T3 sequence (P78324 other isoform, or with tags, fused parts or gaps limits assumed): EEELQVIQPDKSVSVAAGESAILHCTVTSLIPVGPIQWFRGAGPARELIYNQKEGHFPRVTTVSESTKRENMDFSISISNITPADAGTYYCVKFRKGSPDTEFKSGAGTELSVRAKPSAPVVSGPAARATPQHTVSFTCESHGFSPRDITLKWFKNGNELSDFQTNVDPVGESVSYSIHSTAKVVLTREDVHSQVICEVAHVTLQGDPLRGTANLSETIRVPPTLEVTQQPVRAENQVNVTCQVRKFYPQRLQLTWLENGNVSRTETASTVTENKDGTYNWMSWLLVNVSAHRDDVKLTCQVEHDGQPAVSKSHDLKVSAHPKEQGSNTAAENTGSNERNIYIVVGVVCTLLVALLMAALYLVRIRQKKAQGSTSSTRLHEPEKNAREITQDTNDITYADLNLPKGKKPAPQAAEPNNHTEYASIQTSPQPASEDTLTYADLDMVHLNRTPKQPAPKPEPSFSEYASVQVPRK
Chain of human PDL1 protein (Octet assay) (Q9NZQ7 19-238 limits assumed): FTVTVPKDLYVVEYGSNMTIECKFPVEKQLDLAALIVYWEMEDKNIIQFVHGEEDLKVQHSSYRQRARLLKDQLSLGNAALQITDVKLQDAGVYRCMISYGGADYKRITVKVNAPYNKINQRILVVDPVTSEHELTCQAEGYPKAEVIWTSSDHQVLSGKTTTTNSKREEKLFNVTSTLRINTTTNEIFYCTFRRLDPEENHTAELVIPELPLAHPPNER
T4 sequence (P78324 31-373): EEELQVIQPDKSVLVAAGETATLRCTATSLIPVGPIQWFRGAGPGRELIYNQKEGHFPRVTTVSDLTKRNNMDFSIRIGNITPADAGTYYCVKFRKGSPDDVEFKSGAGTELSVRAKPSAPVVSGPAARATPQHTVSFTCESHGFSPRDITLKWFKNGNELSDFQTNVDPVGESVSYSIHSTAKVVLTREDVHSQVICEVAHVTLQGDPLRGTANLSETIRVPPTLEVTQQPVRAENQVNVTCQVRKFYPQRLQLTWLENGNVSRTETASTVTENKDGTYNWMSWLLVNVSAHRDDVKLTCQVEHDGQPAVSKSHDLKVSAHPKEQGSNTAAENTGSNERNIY
T1 sequence (P78324 31-373): as above
T6 sequence (Q9NZQ7 19-290): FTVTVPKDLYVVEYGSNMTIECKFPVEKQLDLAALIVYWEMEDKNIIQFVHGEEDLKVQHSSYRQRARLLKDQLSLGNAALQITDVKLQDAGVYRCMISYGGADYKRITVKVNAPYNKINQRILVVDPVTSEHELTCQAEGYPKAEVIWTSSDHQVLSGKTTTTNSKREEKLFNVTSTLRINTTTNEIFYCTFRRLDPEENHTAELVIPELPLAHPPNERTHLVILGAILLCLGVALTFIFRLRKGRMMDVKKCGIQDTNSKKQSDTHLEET
Chain of Full length human SIRPα v1 with beta-gal fragment (ED) at its C-terminal, in K562 cells (P78324 31-504): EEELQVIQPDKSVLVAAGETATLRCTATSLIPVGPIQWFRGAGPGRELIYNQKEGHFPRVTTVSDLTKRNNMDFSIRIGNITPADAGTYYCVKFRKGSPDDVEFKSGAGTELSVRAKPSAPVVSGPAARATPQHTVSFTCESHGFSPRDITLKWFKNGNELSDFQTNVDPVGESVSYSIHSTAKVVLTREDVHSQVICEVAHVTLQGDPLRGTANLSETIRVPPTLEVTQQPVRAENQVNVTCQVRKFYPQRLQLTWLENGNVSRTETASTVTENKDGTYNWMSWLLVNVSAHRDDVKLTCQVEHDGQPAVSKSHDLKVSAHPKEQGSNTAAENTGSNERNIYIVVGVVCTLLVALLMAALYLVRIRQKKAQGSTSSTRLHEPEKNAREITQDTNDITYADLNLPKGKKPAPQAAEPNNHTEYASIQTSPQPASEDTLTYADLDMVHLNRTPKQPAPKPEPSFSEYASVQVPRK
T2 sequence (P78324 31-504): as above

B1: Reference anti-SIRPα antibody hu1H9G4 (antibody, human IgG4, V domains shown)
VH: QVQLVQSGAEVKKPGASVKVSCKASGYTFTSYWITWVKQAPGQGLEWIGDIYPGSGSTNHIEKFKSKATLTVDTSISTAYMELSRLRSDDTAVYYCATGYGSSYGYFDYWGQGTLVTVSS
VL: DIQMTQSPSSLSASVGDRVTITCRASENIYSYLAWYQQKPGKAPKLLIYTAKTLAEGVPSRFSGSGSGTDFTLTISSLQPEDFATYYCQHQYGPPFTFGQGTKLELK
For the molecule B1, the “% Competition” value in experiment [1] is 14.5%; in experiment [2] it was 82.6%; in [3], 90.5%.

B2: Anti-SIRPα antibody C42 (antibody, human IgG4, V domains shown)
VH: QIQLVQSGPELKKPGETVKISCRASGYTFTTYGMSWVKQAPGKGLRWMGWINTYSGVSTCADDFKGRFAFSLETSATTAYLQIHNLTNEDTATYFCARDPHSYGNSPAWFPYWGQGTLVTVSA
VL: DIVMTQSQKFMSTTIRDRVSITCKASQNVGISVAWYQQKSGQSPKLLIYSASNRYTGVPDRFTGSGSGTDFTLTISNMQSEDLADYFCQQYSSYPLTFGSGTKLAIK
notes: Mouse variable regions; also called 042c
What is called EC50 is the midpoint of the concentration-response curve. The IC50 is the concentration that inhibits the measured activity by half. Consider B2, for which the “IC50 (SHP-1 recruitment blocking)” value in experiment [4] came out at 0.99 nM. Besides, the “TOP blocking (SHP-1 recruitment)” value in [4] came to 70%. Moreover, the EC50 stood at 1.9 nM in experiment [5] and 4.21 nM in experiment [6]. The figures for the “TOP MFI” value in experiment [5] and in [6] were 73200 MFI and 54800 MFI, respectively. In addition, the “% Competition” value amounted to 8.9% in experiment [1], 93.9% in [2] and 29.8% in [3]. For the same molecule, the 50% inhibitory concentration (IC50) in experiment [7] worked out at 3.6 nM; in [8], 4.49 nM. Besides, the values for the TOP blocking in [7] and in [8] were 97.1% and 94.6%, respectively.

B3: Anti-SIRPα antibody C73 (antibody, human IgG4, V domains shown)
VH: QIQLVQSGPELKKPGETVKISCKASGYTFTTYGMSWVKQAPGKGLKWMVWINTYSGVPTYADDFKGRFAFSLETSASTSYLQINNLKNEDTATYFCARDPHYYGSSPAWFVYWGQGTLVTVSA
VL: DIVMTQSQKFMSTTIGDRVSITCEASQIVGIAVAWYQQKPGQSPKLLIYSASNRYTGVPDRFTGSGSGTDFTLTISNMQSEDLANYFCQQYSAYPFTFGSGTKLEVK
notes: Mouse variable regions; also called 073c; 073C
B3: the “IC50 (SHP-1 recruitment blocking)” value in experiment [4] is 5.66 nM. Moreover, in experiment [4], the “TOP blocking (SHP-1 recruitment)” value worked out at 51.2%. The concentration for a half-maximal effect (EC50) in [5] was found to be 1.5 nM; in experiment [6], 2.12 nM. In addition, the “TOP MFI” value amounted to 67800 MFI in [5] and 47300 MFI in experiment [6]. Besides, the figures for the “% Competition” value in experiment [1], in experiment [2] and in experiment [3] were 9.1%, 93.6% and 37.7%, respectively. Further, the 50% inhibitory concentration (IC50) is 2.74 nM in experiment [7] and 4.92 nM in experiment [8]. Also, the values for the TOP blocking in experiment [7] and in experiment [8] were 95.1% and 82.8%, respectively.

B4: Anti-PDL1 antibody C71 (antibody, V domains shown)
VH: EVQVVESGGGLVQSGGSLKLSCAGSGFTESAGFMVWHRQVPGKERELVALIATPSGSTNYADSVKGRFTISRDNGKNTVYLQMNSLKPEDTAVYYCNIRGYWGQGTLVTVSS
notes: Heavy chain antibody (single domain variable region); also called Anti-PDL1, C71
The term EC50 (read off the curve) denotes the midpoint of the concentration-response curve. A word on the Kd: it is a measure of binding affinity in units of concentration. A low value points to higher affinity. In general, koff refers to a measure of how fast the partners let go of each other. Read a high koff as fast dissociation. For orientation: kon means a measure of how fast the partners come together. B4: in the experiment with human PDL1 on cells [9], the 50% effective concentration (EC50 (read off the curve)) was roughly 2 nM. In experiment [10], this molecule showed a Kd of 5.31 nM, a koff of 0.00501 s⁻¹ and an on-rate (kon) of 942000 M⁻¹ s⁻¹. Besides, in the experiment with human PDL1 on cells [11], the concentration for a half-maximal effect (EC50 (read off the curve)) is roughly 0.2 nM.

B5: Anti-PDL1/SIRPα bispecific antibody ES019-024 (bispecific antibody, not shown: a dimerising Fc or GST)
light: QIVLTQSPAIMSASPGEKVTLTCSASSSVSSSYLYWYQQKPGSSPKLWIYSTSNLASGVPARFSGSGSGTSYSLTISSMEAEDAASYFCHQWSSYPYTFGGGTKLEIK
heavy (part 1 of 2): EVQLQQSGAELVKPGASVKLSCTASGFNIKDYYMHWVKQRTEQGLEWIGRIDPEDGETKYAPKFQGKATITADTSSNTAYLQLSSLTSEDTAVYYCDRGLAYWGQGTLVTVSA
heavy (part 2 of 2): EVQVVESGGGLVQSGGSLKLSCAGSGFTESAGFMVWHRQVPGKERELVALIATPSGSTNYADSVKGRFTISRDNGKNTVYLQMNSLKPEDTAVYYCNIRGYWGQGTLVTVSS
With B5, the “EC50 (read off the curve)” value with human PDL1 on cells [9] is roughly 2 nM. In experiment [10], the affinity, expressed as Kd, was 6.56 nM; the off-rate constant (koff) turned out to be 0.00603 s⁻¹; the kon was 920000 M⁻¹ s⁻¹. Further, the “EC50 (read off the curve)” value with human PDL1 on cells [11] is roughly 0.6 nM.

B6: Anti-PDL1/SIRPα bispecific antibody ES019-020 (bispecific antibody, not shown: small tags and cut ends; a dimerising Fc or GST)
light (part 1 of 2): QIVLTQSPAIMSASPGEKVTLTCSASSSVSSSYLYWYQQKPGSSPKLWIYSTSNLASGVPARFSGSGSGTSYSLTISSMEAEDAASYFCHQWSSYPYTFGGGTKLEIK
light (part 2 of 2): EVQVVESGGGLVQSGGSLKLSCAGSGFTESAGFMVWHRQVPGKERELVALIATPSGSTNYADSVKGRFTISRDNGKNTVYLQMNSLKPEDTAVYYCNIRGYWGQGTLVTVSS
heavy: EVQLQQSGAELVKPGASVKLSCTASGFNIKDYYMHWVKQRTEQGLEWIGRIDPEDGETKYAPKFQGKATITADTSSNTAYLQLSSLTSEDTAVYYCDRGLAYWGQGTLVTVSA
As to B6, the “EC50 (read off the curve)” value with human PDL1 on cells [9] is roughly 3 nM. Besides, in experiment [10], the Kd came out at 5.54 nM, the koff is 0.00509 s⁻¹ and the association rate constant (kon) was determined as 918000 M⁻¹ s⁻¹. Further, the 50% effective concentration (EC50 (read off the curve)) with human PDL1 on cells [11] was roughly 0.6 nM.

B7: Anti-SIRPα antibody C35 (antibody, V domains shown)
VH: QIQLVQSGPELRKPGETVKISCKASGYSFTNYAMNWVKQAPGKVLKWMGFINTYTGEPTYADDFKGRFAFSLETSASTAYLQINNLKNEDTATYFCTRTRGYYDFDGGAFDYWGQGTSLTVSS
VL: DIVMTQSQKFMSTSIGDRVSVTCKASQNVGTHLAWYQQKPGQSPKALIFSASYRYIGVPDRFTGSGSGTDFTLTITNVQSEDLAEYFCQQYNTYPLTFGAGTKLELK
notes: Tested as purified chimeric antibody; also called 035
In the case of B7, the “IC50 (read off the curve)” value in experiment [12] was roughly 2 nM.
